The term Kd denotes the free concentration of one partner at which half of the binding sites on the other are occupied at equilibrium, for simple one-to-one binding. The EC50 (read off the curve) is the concentration at which the effect is half-maximal.

The target in data set [1] is recombinant VLCAD (mature human VLCAD lacking its cleavable leader sequence, aa 40-655, 10x His-tagged) (human) (UniProt P49748). In words: ITC, 200 µM Btn-peptide injected into 15 µM recombinant VLCAD, 25 °C, single binding site model. (Isothermal titration calorimetry measures the heat released or taken up as one component is titrated into another.)
Another data set has as its target T1, MCAD (mouse, UniProt P45952 26-421).
T1 sequence (looked up): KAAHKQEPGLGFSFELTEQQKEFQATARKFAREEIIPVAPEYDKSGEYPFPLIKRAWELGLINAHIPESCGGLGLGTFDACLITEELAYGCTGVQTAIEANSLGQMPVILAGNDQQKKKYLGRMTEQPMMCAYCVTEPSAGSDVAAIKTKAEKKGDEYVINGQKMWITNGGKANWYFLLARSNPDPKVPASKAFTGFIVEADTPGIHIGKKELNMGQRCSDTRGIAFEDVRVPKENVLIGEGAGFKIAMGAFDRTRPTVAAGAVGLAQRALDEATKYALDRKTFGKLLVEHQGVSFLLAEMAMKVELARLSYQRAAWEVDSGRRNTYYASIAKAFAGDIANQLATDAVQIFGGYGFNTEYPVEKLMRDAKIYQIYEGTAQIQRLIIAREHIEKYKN
In words: streptavidin pull-down with biotinylated SAHB from cellular lysate; western blot for MCAD. The text has this: (§1) To validate the MS result, the pulldowns were repeated and eluates run on a gel for anti-VLCAD Western blot analysis. VLCAD was detected in the MCL-1 SAHBD pulldown eluate, confirming the MS results. […] All peptides faithfully recapitulated native BH3-binding propensities for endogenous MCL-1 protein (FIG. 8). The eluates were then probed for the other members of the acyl-CoA dehydrogenase family that manifest shorter fatty acid substrate specificities. MCL-1 SAHBD was able to pull down VLCAD, but not MCAD or SCAD (FIG. 9). Because the traditional MCL-1 staple location differs from that of the BIM, BID, and BAD SAHBs, it was important to confirm that the observed VLCAD binding specificity was due to BH3 sequence selectivity, not staple position. A BIM SAHB with the traditional MCL-1 staple (BIM SAHBF), and a MCL-1 stapled peptide with the traditional BIM staple (MCL-1 SAHBA), were generated. […]
(§2) Wild-type MEFs were trypsinized, washed once with cold PBS, and lysed on ice with NP-40 lysis buffer (50 mM Tris, pH 7.4, 150 mM NaCl, 0.5% (v/v) NP-40, complete protease inhibitor pellet (Roche)) using 1 ml of lysis buffer for every 10 million cells lysed. Cellular debris was pelleted at 14,000 g for 10 min at 4° C., and the supernatant was quantified using the BCA Protein Assay Kit (Thermo Fisher Scientific). […]

Data set [2] deals with recombinant VLCAD (mature human VLCAD lacking its cleavable leader sequence, aa 40-655, 10x His-tagged) (human) (UniProt P49748). In words: biolayer interferometry; Biotin-PEG SAHB on streptavidin sensors, VLCAD in solution at the plotted concentrations.
Another data set concerns the target T2, SCAD (mouse, UniProt Q07417 25-412).
T2 sequence (looked up): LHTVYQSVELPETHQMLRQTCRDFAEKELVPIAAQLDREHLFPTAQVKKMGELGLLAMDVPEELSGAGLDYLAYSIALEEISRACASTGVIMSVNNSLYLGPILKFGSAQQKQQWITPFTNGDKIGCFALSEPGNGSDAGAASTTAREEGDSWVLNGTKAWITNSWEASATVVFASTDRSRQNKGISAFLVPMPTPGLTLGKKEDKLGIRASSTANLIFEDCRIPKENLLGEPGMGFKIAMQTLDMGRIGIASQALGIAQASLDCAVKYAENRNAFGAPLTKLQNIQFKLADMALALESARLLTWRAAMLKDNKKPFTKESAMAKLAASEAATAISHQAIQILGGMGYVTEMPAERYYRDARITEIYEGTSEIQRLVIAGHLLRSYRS
In words: streptavidin pull-down with biotinylated SAHB from cellular lysate; western blot for SCAD.
Excerpt: as §1, §2

The next data set deals with MCL-1ΔNΔC (UniProt Q07820). The data set is described as follows: biolayer interferometry; Biotin-PEG SAHB on streptavidin sensors, MCL-1ΔNΔC in solution at the plotted concentrations. (Biolayer interferometry detects binding as a change in optical thickness at a sensor tip.)
For data set [3], the target named is T3, native VLCAD (Very Long Chain Acyl CoA Dehydrogenase) from mouse embryonic fibroblast lysates (mouse, UniProt P50544 42-656).
T3 construct: also called endogenous VLCAD of mouse liver mitochondria
T3 sequence (looked up): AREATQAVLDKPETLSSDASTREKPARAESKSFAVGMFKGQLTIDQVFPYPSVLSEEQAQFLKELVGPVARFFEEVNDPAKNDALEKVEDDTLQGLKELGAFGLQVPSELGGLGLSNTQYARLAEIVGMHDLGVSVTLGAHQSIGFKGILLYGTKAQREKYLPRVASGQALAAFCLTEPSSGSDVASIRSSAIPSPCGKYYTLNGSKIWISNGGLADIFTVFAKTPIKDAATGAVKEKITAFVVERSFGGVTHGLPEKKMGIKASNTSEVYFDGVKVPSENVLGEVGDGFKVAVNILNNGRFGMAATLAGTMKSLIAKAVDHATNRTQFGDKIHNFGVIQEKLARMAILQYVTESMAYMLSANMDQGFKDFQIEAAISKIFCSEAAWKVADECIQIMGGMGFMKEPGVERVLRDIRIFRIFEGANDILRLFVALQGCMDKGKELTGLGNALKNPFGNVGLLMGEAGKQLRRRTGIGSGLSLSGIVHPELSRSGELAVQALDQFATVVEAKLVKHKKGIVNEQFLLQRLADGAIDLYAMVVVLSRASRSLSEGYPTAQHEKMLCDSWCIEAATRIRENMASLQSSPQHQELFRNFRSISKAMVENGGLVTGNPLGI
The data set is described as follows: streptavidin pull-down with biotinylated SAHB from MEF lysate; western blot for VLCAD, densitometry ratio mutant/WT. The procedure:
Wild-type MEFs were trypsinized, washed once with cold PBS, and lysed on ice with NP-40 lysis buffer (50 mM Tris, pH 7.4, 150 mM NaCl, 0.5% (v/v) NP-40, complete protease inhibitor pellet (Roche)) using 1 ml of lysis buffer for every 10 million cells lysed. Cellular debris was pelleted at 14,000 g for 10 min at 4° C., and the supernatant was quantified using the BCA Protein Assay Kit (Thermo Fisher Scientific). 2 mg of lysate per pulldown were then exposed to 50 μL of pre-equilibrated High Capacity Streptavidin Agarose beads (Thermo Fisher Scientific). […] The beads were then pelleted and washed with NP-40 lysis buffer three times before eluting the protein sample from the beads by heating at 70° C. for 10 min in SDS loading buffer. Samples were then subjected to electrophoresis and either Western analysis or Coomassie stain (SimplyBlue Safe Stain, Thermo Fisher Scientific). The antibodies used for Western analysis were the following: MCL-1 (Rockland 600-401-394; 1:1000 in 3% BSA), VLCAD (Thermo Fisher Scientific PA5-29959; 1:1000 in 1% milk+0.1% Tween-20), MCAD (Thermo Fisher Scientific PA5-27201; 1:1000 in 3% BSA), and SCAD (Abcam ab154823; 1:1000 in 3% BSA). Coomassie stained gels were then processed for proteomics analysis (see below). Biotinylated SAHB pulldowns of recombinant protein were performed as above incubating 5 nmol of SAHB with 10 pmol of rVLCAD in 500 μL total volume. […]
(Immunoblotting shows a protein as a band on a membrane.)

In data set [4] the target is MCL-1 SAHBs that do not bind VLCAD.
For another data set, the target named is T4, MCL-1 SAHBD.
T4 chain: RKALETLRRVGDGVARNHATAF

In data set [5] the target is T3, native VLCAD (Very Long Chain Acyl CoA …). In words: DSS chemical crosslinking of intact mouse liver mitochondria, Western (FIG. 32). From the text:
To investigate the native interaction between VLCAD and MCL-1, intact mitochondria were isolated from mouse livers and exposed to the chemical crosslinker DSS. Vehicle or DSS-treated mitochondria were then lysed and the resultant lysate run on a reducing/denaturing gel.

Bridge positions count the residues as written; N and C are the ends. Square brackets hold non-standard residues; d marks the D form. Ends that are not written are not given here. * marks the point of attachment. Biotin = O=C1N[C@H]2[C@H](CS[C@H]2CCCCC(=O)*)N1; S5 = C=CCCC[C@](C)(N)C(=O)O

MCL-1ΔNΔC, sequence (Q07820 172-320, stated change not applied): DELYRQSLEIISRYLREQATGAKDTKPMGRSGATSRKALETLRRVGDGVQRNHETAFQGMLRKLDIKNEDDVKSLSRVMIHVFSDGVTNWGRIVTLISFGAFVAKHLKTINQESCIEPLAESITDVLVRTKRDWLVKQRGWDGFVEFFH

B1: MCL-1 SAHBD V220A (peptide)
peptide: Biotin-RKALETLRRVGDGAARNH[S5]TAF
modifications: staple (positions not given here); not fully specified (residue 15, bridges); also: second staple residue not placed
In the case of B1, in [1], the Kd came to 1700 nM.

B2: MCL-1 SAHBD (peptide)
peptide: RKALETLRRVGDGV[S5]RNH[S5]TAF
modifications: staple 15-19; also: derivatised forms: N-terminal biotin, Btn-PEG, fluorinated analog
notes: One entry for all derivatised forms (biotin, Btn-PEG, fluorinated, underivatised); the form used is named under assay in each row; also called Btn-MCL-1 SAHBD; Biotin-PEG-MCL-1 SAHBD
With B2, the binding result in the data set with MCAD and with SCAD was “no binding” in each case. The EC50 (read off the curve) in data set [2] came to 3000 nM; with MCL-1ΔNΔC, 200 nM.

B3: MCL-1 SAHBD H224A (peptide)
peptide: RKALETLRRVGDGVARNAATAF
modifications: staple (positions not given here); not fully specified (residues 15, 19, bridges); also: biotinylated, site not given here
notes: MCL-1 numbering
As to B3, in data set [3], the binding result was “no binding”.

B4: recombinant VLCAD (mature human VLCAD lacking its cleavable leader sequence, aa 40-655, 10x His-tagged) (protein)
chain: YAGGAAQLALDKSDSHPSDALTRKKPAKAESKSFAVGMFKGQLTTDQVFPYPSVLNEEQTQFLKELVEPVSRFFEEVNDPAKNDALEMVEETTWQGLKELGAFGLQVPSELGGVGLCNTQYARLVEIVGMHDLGVGITLGAHQSIGFKGILLFGTKAQKEKYLPKLASGETVAAFCLTEPSSGSDAASIRTSAVPSPCGKYYTLNGSKLWISNGGLADIFTVFAKTPVTDPATGAVKEKITAFVVERGFGGITHGPPEKKMGIKASNTAEVFFDGVRVPSENVLGEVGSGFKVAMHILNNGRFGMAAALAGTMRGIIAKAVDHATNRTQFGEKIHNFGLIQEKLARMVMLQYVTESMAYMVSANMDQGATDFQIEAAISKIFGSEAAWKVTDECIQIMGGMGFMKEPGVERVLRDLRIFRIFEGTNDILRLFVALQGCMDKGKELSGLGSALKNPFGNAGLLLGEAGKQLRRRAGLGSGLSLSGLVHPELSRSGELAVRALEQFATVVEAKLIKHKKGIVNEQFLLQRLADGAIDLYAMVVVLSRASRSLSEGHPTAQHEKMLCDTWCIEAAARIREGMAALQSDPWQQELYRNFKSISKALVERGGVVTSNPLGF
Regarding B4, the “VLCAD enzymatic activity (reduction of ferrocenium hexafluorophosphate with palmitoyl-CoA as substrate)” value in data set [4] was “an effect not observed when MCL-1 SAHBs that do not bind VLCAD were added”; in the data set with MCL-1 SAHBD, “Pre-incubation of VLCAD with MCL-1 SAHBD caused a decrease in enzymatic activity”.

B5: endogenous MCL-1 protein from mouse embryonic fibroblasts (other, UniProt P97287 1-331, looked up)
chain: MFGLRRNAVIGLNLYCGGASLGAGGGSPAGARLVAEEAKARREGGGEAALLPGARVVARPPPVGAEDPDVTASAERRLHKSPGLLAVPPEEMAASAAAAIVSPEEELDGCEPEAIGKRPAVLPLLERVSEAAKSSGADGSLPSTPPPPEEEEDDLYRQSLEIISRYLREQATGSKDSKPLGEAGAAGRRALETLRRVGDGVQRNHETAFQGMLRKLDIKNEGDVKSFSRVMVHVFKDGVTNWGRIVTLISFGAFVAKHLKSVNQESFIEPLAETITDVLVRTKRDWLVKQRGWDGFVEFFHVQDLEGGIRNVLLAFAGVAGVGAGLAYLIR
notes: also called native MCL-1; endogenous/native MCL-1
On to B5, for which the binding result in data set [5] was “binds”.

The values are drawn from US20250306026A1 (Dana-Farber, published 2025).
